Data published in patent publication US20060280751A1.

How the values were obtained:
[1] = biological target: envelope glycoprotein gp120 of HIV-1 laboratory strain 89.6 (HIV-1 89.6 strain) (UniProt Q73372); assay: cell-based or functional assay
[2] = biological target: envelope glycoprotein gp120 of HIV-1 laboratory strain AD8 (HIV-1 AD8 strain); assay: cell-based or functional assay
[3] = biological target: envelope glycoprotein gp120 of HIV-1 laboratory strain IIIB (HIV-1 IIIB strain); assay: cell-based or functional assay
[4] = biological target: envelope glycoprotein gp120 of HIV-1 laboratory strain MN (HIV-1 MN strain) (UniProt P05877); assay: cell-based or functional assay
[5] = biological target: envelope glycoprotein gp120 of HIV-1 laboratory strain SF2 (HIV-1 SF2 strain); assay: cell-based or functional assay
[6] = biological target: V3/β-Gal from patients' HIV-1 clones with IGPARAF in the middle portion of V3 region (HIV-1 from patients); assay: sandwich ELISA: V3/β-Gal (200 ng/ml) captured by anti-β-Gal antibody, 1 µg/ml KD-247
[7] = biological target: V3/β-Gal from patients' HIV-1 clones with IGPGRAF in the middle portion of V3 region (HIV-1 from patients); assay: as above
[8] = biological target: V3/β-Gal from patients' HIV-1 clones with IGPGRAI in the middle portion of V3 region (HIV-1 from patients); assay: as above
[9] = biological target: V3/β-Gal from patients' HIV-1 clones with IGPGRAL in the middle portion of V3 region (HIV-1 from patients); assay: as above
[10] = biological target: V3/β-Gal from patients' HIV-1 clones with IGPGRSF in the middle portion of V3 region (HIV-1 from patients); assay: as above
[11] = biological target: V3/β-Gal from patients' HIV-1 clones with IGPGRTF in the middle portion of V3 region (HIV-1 from patients); assay: as above
[12] = biological target: V3/β-Gal from patients' HIV-1 clones with VGPGRAL in the middle portion of V3 region (HIV-1 from patients); assay: as above

KD-247, a humanized monoclonal antibody to PND region
Neutralizing activity IC50 (p24 antigen in PBMC culture) [1]: 0.2 µg/mL
Neutralizing activity IC90 (p24 antigen in PBMC culture) [1]: 2.5 µg/mL
Neutralizing activity IC50 (p24 antigen in PBMC culture) [2]: 5 µg/mL
Neutralizing activity IC90 (p24 antigen in PBMC culture) [2]: 10 µg/mL
Neutralizing activity IC50 (p24 antigen in PBMC culture) [3]: > 50 µg/mL
Neutralizing activity IC90 (p24 antigen in PBMC culture) [3]: > 50 µg/mL
Neutralizing activity IC50 (p24 antigen in PBMC culture) [4]: 0.1 µg/mL
Neutralizing activity IC90 (p24 antigen in PBMC culture) [4]: 1 µg/mL
Neutralizing activity IC50 (p24 antigen in PBMC culture) [5]: 1 µg/mL
Neutralizing activity IC90 (p24 antigen in PBMC culture) [5]: 5 µg/mL
relative binding (% of V3/β-Gal from MN strain) [6]: > 100%
relative binding (% of V3/β-Gal from MN strain) [7]: > 100%
relative binding (% of V3/β-Gal from MN strain) [8]: > 100%
relative binding (% of V3/β-Gal from MN strain) [9]: > 100%
relative binding (% of V3/β-Gal from MN strain) [10]: > 100%
relative binding (% of V3/β-Gal from MN strain) [11]: > 100%
relative binding (% of V3/β-Gal from MN strain) [12]: > 100%
